Article PMC4212957, “The serodominant secreted effector protein of Salmonella, SseB, is a strong CD4 antigen containing an immunodominant epitope presented by diverse HLA class II alleles” (Immunology, 2014)

B1: SseB: Recombinant SseB protein of Salmonella, codon optimized, expressed in E. coli (protein, UniProt Q7BVH7 1-196, looked up)
Secreted effector protein SseB: MSSGNILWGSQNPIVFKNSFGVSNADTGSQDDLSQQNPFAEGYGVLLILLMVIQAIANNKFIEVQKNAERARNTQEKSNEMDEVIAKAAKGDAKTKEEVPEDVIKYMRDNGILIDGMTIDDYMAKYGDHGKLDKGGLQAIKAALDNDANRNTDLMSQGQITIQKMSQELNAVLTQLTGLISKWGEISSMIAQKTYS
modifications: recombinant, codon optimized, E. coli expressed

Tests used:
[1] = target: HLA-DRB1*12:02 (Homo sapiens, UniProt P01903+P01911, A100R/A169T/D57E/D86V/F55L/H45Y/I96F/K41T/L162R/M171V/P40S/Q125H/Q178H/Q39Y/Q99D/R42G/S66L/T262R/V114A/V67L/W38E/Y59H/Y61H/Y89S); assay: Peptide/HLA-DR binding, competitive ELISA; conditions: ratio IC50 of peptide / IC50 of reference peptide TFR 141–155, lower = higher affinity, ratio 20 or less high, 20–100 moderate, three independent experiments
Description: (§1) HLA-DR heterodimers were purified from homozygous Epstein–Barr virus B-lymphoblastoid cell lines (HPA Culture Collections, Salisbury, UK) by affinity chromatography with the monomorphic HLA-DRα monoclonal antibody, L243.[29],[30] Binding of the SseB peptide panel to the HLA-DR molecules HLA-DRB1*01:01, 03:01, 04:01, 07:01, 09:01, 11:01, 12:02, 15:01, 15:02 was assessed by competitive ELISA, as previously described, using an automated workstation.[29],[30] We evaluated the peptide concentration able to prevent binding of 50% of the labelled peptide (IC50). Data were expressed as relative affinity: ratio of the IC50 of the peptide to the IC50 of the reference peptide, which is a high binder to the HLA class II molecule. Unlabelled forms of the biotinylated peptides were used as reference peptides.

[2] = target: T1, HLA-DRB1*15:01 (Homo sapiens, UniProt P01903+P01911); assay: Peptide/HLA-DR binding, competitive ELISA; conditions: ratio IC50 of peptide / IC50 of reference peptide A3 152–166, lower = higher affinity, ratio 20 or less high, 20–100 moderate, three independent experiments
T1 construct: HLA-DR heterodimers were purified from homozygous Epstein–Barr virus B-lymphoblastoid cell lines; host or cells: homozygous EBV B-lymphoblastoid cell line
Description: as §1

[3] = target: T2, HLA-DRB1*09:01 (Homo sapiens, UniProt P01903+P01911, A100R/A103E/D57H/D86V/F55Y/F60I/F76Y/I96F/K127E/L162R/M171V/P40D/Q125H/Q99R/R33Q/R42F/S133A/S66N/T210M/V115G/W38K/Y107V/Y59G/Y89S); assay: Peptide/HLA-DR binding, competitive ELISA; conditions: ratio IC50 of peptide / IC50 of reference peptide CTP 427–441, lower = higher affinity, ratio 20 or less high, 20–100 moderate, three independent experiments
T2 construct: HLA-DR heterodimers were purified from homozygous Epstein–Barr virus B-lymphoblastoid cell lines; host or cells: homozygous EBV B-lymphoblastoid cell line
Description: as §1

[4] = target: T3, HLA-DRB1*15:02 (Homo sapiens, UniProt P01903+P01911, V115G); assay: Peptide/HLA-DR binding, competitive ELISA; conditions: ratio IC50 of peptide / IC50 of reference peptide TFR 607–620, lower = higher affinity, ratio 20 or less high, 20–100 moderate, three independent experiments
T3 construct: HLA-DR heterodimers were purified from homozygous Epstein–Barr virus B-lymphoblastoid cell lines; host or cells: homozygous EBV B-lymphoblastoid cell line
Description: as §1

[5] = target: T4, HLA-DRB1*03:01 (Homo sapiens, UniProt P01903+P01911, A100K/A102G/A103R/A169T/F55Y/I96L/K41T/L162R/M171V/P40S/Q125H/Q178H/Q39Y/R42S/S66N/T106N/T262R/W38E/Y61H); assay: Peptide/HLA-DR binding, competitive ELISA; conditions: ratio IC50 of peptide / IC50 of reference peptide MT2-16, lower = higher affinity, ratio 20 or less high, 20–100 moderate, three independent experiments
T4 construct: HLA-DR heterodimers were purified from homozygous Epstein–Barr virus B-lymphoblastoid cell lines; host or cells: homozygous EBV B-lymphoblastoid cell line
Description: as §1

[6] = tested on: draining lymph node cells of HLA-DR4 transgenic mice; assay: Murine IFN-γ ELISpot, HLA-DR4 transgenic mice primed with SseB; conditions: mouse, in vivo
Source text: (§2) Mice transgenic for HLA-DR1 (that is, HLA-DRA1*0101/HLA-DRB1*0101) and HLA-DR4 (that is, HLA-DRA1*0101/HLA-DRB1*0401)[24]–[26] were bred and housed in the Centre for Biological Services at the Hammersmith campus, Imperial College London, UK, in accordance with Home Office regulations and College ethics review. Both transgenic lines are maintained on a C57BL/6 background as homozygotes for knockout of murine MHC Class II H2-Aβ.[27]
(§3) HLA-DR1 or HLA-DR4 transgenic mice were primed, by subcutaneous injection into the footpad, with 25 μg of recombinant SseB protein administered as a 1 : 1 emulsion with TiterMax® Gold (CytRx Corporation, Los Angeles, CA). Ten days after priming, popliteal draining lymph nodes were harvested and stimulated, in triplicate, at 2 × 10^5 cells per well with 25 μg of SseB peptide or recombinant protein in pre-coated murine IFN-γ ELISpot plates (2BScientific, Upper Heyford, Oxfordshire, UK). Culture medium was RPMI-1640 containing 2 mM L-glutamine, 50 U/ml penicillin G, 50 μg/ml streptomycin sulphate, 50 μM β-mercaptoethanol and 10% fetal calf serum. Cells were cultured at 37° and in 5% CO2 for 72 hr before assay development using a biotinylated anti-IFN-γ antibody, a horseradish peroxidase detection antibody and TMB substrate (2BScientific). Developed plates were left to dry before spot counting using an AID ELISpot reader (Autoimmun Diagnostika GMBH). Positive epitopes for a given transgenic line were defined as those where more than half of assayed animals gave a greater number of spot-forming cells than 2 SD over the mean of the no protein/peptide control.
(§4) Fig 1 Definition of HLA-DR specific T-cell epitopes in DR1 and DR4 transgenic mice. (a) HLA-DR1 (n = 5) and (b) HLA-DR4 (n = 6) mice were footpad primed with ssEB protein in combination with TiterMax® Gold adjuvant. Draining lymph node (DLN) cells were assayed by ELISpot at day 10 for interferon-γ (IFN-γ) T-cell responses to ssEB peptides and protein. A peptide was defined as containing a T-cell epitope for DR1 or DR4 HLA molecules if more than half of the mice assayed gave a greater number of spot-forming cells than 2 SD over the mean of the no peptide/protein control. The 2 SD value for each transgenic line is shown by a dotted line.

[7] = target: HLA-DRB1*01:01 (Homo sapiens, UniProt P01903+P01911, A100R/D57E/F55L/F60I/F76Y/I96L/L162R/M171V/P40L/Q125E/R42F/V115G/Y59C); conditions: competitive ELISA; ratio IC50 of peptide / IC50 of reference peptide HA 306–318; lower = higher affinity; ratio 20 or less high, 20–100 moderate; three independent experiments
[8] = target: HLA-DRB1*11:01 (Homo sapiens, UniProt P01903+P01911, A100R/A169T/A87E/I96F/K41T/L162R/M171V/P40S/Q125H/Q178H/Q39Y/Q99D/R42S/S66Y/T262R/V115G/W38E); conditions: competitive ELISA; ratio IC50 of peptide / IC50 of reference peptide HA 306–318; lower = higher affinity; ratio 20 or less high, 20–100 moderate; three independent experiments
[9] = target: HLA-DRB1*07:01 (Homo sapiens, UniProt P01903+P01911, A100R/A102G/A103Q/D57E/D86V/E43K/F76Y/K127E/L162R/M171V/P40G/Q125H/Q99D/R33Q/R42Y/R54Q/S133A/S66F/T210M/V115G/Y107V/Y59L/Y89S); conditions: competitive ELISA; ratio IC50 of peptide / IC50 of reference peptide HA 306–318; lower = higher affinity; ratio 20 or less high, 20–100 moderate; three independent experiments
[10] = target: HLA-DRB1*04:01 (Homo sapiens, UniProt P01903+P01911, A100K/A169T/F76Y/I96L/K127E/L162R/M171V/N62H/P40V/Q125Y/R42H/S133A/S149N/S66Y/V115G/V209L/W38E); conditions: competitive ELISA; ratio IC50 of peptide / IC50 of reference peptide HA 306–318; lower = higher affinity; ratio 20 or less high, 20–100 moderate; three independent experiments
[11] = tested on: draining lymph node cells of HLA-DR1 transgenic mice; assay: Murine IFN-γ ELISpot, HLA-DR1 transgenic mice primed with SseB; conditions: mouse, in vivo
Source text: as §2, §3, §4

[12] = tested on: Salmonella SL1344; conditions: C57BL/6 mice, immunization with two doses; cited from earlier work
Source text: There have been a limited number of studies aimed at exploring candidates from the S. Typhi immunome for serodiagnostic, serodominant or protective credentials with respect to B-cell or T-cell immunity.[16]–[19] Some candidate antigens have been successfully deployed to induce protective immunity against challenge in mice; these antigens include OmpL, SseB, SseD and CirA.[16],[18],[19] Antigen arrays have been informative: an array of 2724 Salmonella enterica serovar Typhi antigens, selected on the basis of key terms such as ‘outer membrane’ or ‘chaperone’, representing over 63% of the proteom ...

Molecule	Relative binding affinity of peptide to HLA-DR molecules DRB1*1202 [1]	Relative binding affinity of peptide to HLA-DR molecules DRB1*1501 [2]	Relative binding affinity of peptide to HLA-DR molecules DRB1*0901 [3]	Relative binding affinity of peptide to HLA-DR molecules DRB1*1502 [4]	Relative binding affinity of peptide to HLA-DR molecules DRB1*0301 [5]	IFN-γ ELISpot recall response / CD4 epitope in HLA-DR4 transgenic mice [6]	Relative binding affinity of peptide to HLA-DR molecules DRB1*0101 [7]	Relative binding affinity of peptide to HLA-DR molecules DRB1*1101 [8]	Relative binding affinity of peptide to HLA-DR molecules DRB1*0701 [9]	Relative binding affinity of peptide to HLA-DR molecules DRB1*0401 [10]	IFN-γ ELISpot recall response / CD4 epitope in HLA-DR1 transgenic mice [11]	protection from oral challenge (mean survival time and tissue bacterial burden) [12]
14: SseB overlapping library peptide, residues 131–150 (KLDKGGLQAIKAALDNDANR) [Peptide 14]	71	10	50	> 3 333	> 119	CD4 epitopes detected	335	> 278	17	13		
13: SseB overlapping library peptide, residues 121–140 (DYMAKYGDHGKLDKGGLQAI) [Peptide 13]	> 136	12	> 689	2 000	> 119		2958	> 278	> 336	> 145		
16: SseB overlapping library peptide, residues 151–170 (NTDLMSQGQITIQKMSQELN) [Peptide 16]	52	> 270	> 689	> 3 333	> 119		964	> 278	> 336	> 145		
8: SseB overlapping library peptide, residues 71–90 (ARNTQEKSNEMDEVIAKAAK) [Peptide 8]	> 136	> 270	> 689	> 3 333	> 119		> 4149	> 278	> 336	> 145		
B1						relatively large response					highly immunogenic	substantial protection
